Assay results reported in patent US20180155451A1 (published 2018).

T1: FcγRIIa R (human, UniProt P12318 34-217)
T1 construct: extracellular domain; also called FcgRIIa R type; 2aR
T1 sequence (looked up): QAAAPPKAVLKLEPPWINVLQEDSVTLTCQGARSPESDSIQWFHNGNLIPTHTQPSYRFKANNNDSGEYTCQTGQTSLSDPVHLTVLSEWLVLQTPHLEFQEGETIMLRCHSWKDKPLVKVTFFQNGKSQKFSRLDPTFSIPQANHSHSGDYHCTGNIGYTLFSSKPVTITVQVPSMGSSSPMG

B1: GpH7-B3 variant A330_19Q/GpL16-k0 (antibody, human IgG1, kappa)
heavy: not shown
light: DIVMTQSPLSLPVTPGEPASISCQASESLVHSNRNTYLHWYLQKPGQSPQLLIYKVSNRFSGVPDRFSGSGSGTDFTLKISRVEAEDVGVYYCSQNTHVPPTFGQGTKVEIERTVAAPSVFIFPPSDEQLKSGTASVVCLLNNFYPREAKVQWKVDNALQSGNSQESVTEQDSKDSTYSLSSTLTLSKADYEKHKVYACEVTHQGLSSPVTKSFNRGEC
notes: also called Ho Ab A330_19Q
B2: GpH7-B3 variant K326_04F/GpL16-k0 (antibody, human IgG1, kappa)
heavy: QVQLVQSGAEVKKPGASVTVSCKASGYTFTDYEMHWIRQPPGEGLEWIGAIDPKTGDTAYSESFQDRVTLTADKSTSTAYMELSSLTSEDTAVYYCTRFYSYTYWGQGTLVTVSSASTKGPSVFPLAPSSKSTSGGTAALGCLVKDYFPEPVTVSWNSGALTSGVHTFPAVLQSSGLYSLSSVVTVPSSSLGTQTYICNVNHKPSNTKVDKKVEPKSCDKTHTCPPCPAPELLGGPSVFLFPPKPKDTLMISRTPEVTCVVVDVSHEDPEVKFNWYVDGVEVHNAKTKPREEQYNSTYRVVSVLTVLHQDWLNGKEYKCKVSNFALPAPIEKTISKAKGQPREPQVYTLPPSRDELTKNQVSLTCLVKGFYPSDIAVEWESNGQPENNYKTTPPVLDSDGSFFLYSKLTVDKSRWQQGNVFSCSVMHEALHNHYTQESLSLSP
light: B1 light
notes: also called Ho Ab K326_04F
B3: GpH7-B3 variant H268_05P/GpL16-k0 (antibody, human IgG1, kappa)
heavy: not shown
light: B1 light
notes: also called Ho Ab H268_05P
B4: GpH7-B3 variant L235_15Y/GpL16-k0 (antibody, human IgG1, kappa)
heavy: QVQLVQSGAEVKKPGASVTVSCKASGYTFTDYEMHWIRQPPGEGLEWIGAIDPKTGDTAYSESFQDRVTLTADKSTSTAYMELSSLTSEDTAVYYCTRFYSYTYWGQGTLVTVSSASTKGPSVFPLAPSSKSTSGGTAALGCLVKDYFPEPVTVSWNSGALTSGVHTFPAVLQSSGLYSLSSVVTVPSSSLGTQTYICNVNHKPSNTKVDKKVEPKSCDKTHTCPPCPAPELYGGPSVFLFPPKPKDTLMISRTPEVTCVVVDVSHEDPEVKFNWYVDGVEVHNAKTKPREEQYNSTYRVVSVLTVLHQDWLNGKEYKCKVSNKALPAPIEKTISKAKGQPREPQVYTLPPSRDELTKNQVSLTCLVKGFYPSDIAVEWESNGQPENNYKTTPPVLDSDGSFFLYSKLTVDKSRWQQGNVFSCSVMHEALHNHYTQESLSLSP
light: B1 light
notes: also called Ho Ab L235_15Y
B5: GpH7-B3 variant E333_04F/GpL16-k0 (antibody, human IgG1, kappa)
heavy: not shown
light: B1 light
notes: also called Ho Ab E333_04F
B6: GpH7-B3 variant H268_03V/GpL16-k0 (antibody, human IgG1, kappa)
heavy: not shown
light: B1 light
notes: also called Ho Ab H268_03V
B7: GpH7-B3 variant K334_10E/GpL16-k0 (antibody, human IgG1, kappa)
heavy: not shown
light: B1 light
notes: also called Ho Ab K334_10E
B8: GpH7-B3 variant G237_06M/GpL16-k0 (antibody, human IgG1, kappa)
heavy: not shown
light: B1 light
notes: also called Ho Ab G237_06M
B9: GpH7-B3 variant L234_04F/GpL16-k0 (antibody, human IgG1, kappa)
heavy: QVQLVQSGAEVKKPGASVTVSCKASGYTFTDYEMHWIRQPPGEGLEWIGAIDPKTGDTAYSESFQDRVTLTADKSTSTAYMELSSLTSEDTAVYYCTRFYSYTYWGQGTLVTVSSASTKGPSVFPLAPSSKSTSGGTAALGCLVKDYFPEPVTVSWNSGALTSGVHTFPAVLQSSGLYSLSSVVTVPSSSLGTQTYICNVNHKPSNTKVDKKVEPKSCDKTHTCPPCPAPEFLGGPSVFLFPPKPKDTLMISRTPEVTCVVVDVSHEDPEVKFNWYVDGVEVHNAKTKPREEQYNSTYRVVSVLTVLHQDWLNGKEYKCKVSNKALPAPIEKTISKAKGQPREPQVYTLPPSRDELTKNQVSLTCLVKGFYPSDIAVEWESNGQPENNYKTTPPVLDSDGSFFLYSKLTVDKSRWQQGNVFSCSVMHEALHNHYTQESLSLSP
light: B1 light
notes: also called Ho Ab L234_04F
B10: GpH7-B3 variant L235_20W/GpL16-k0 (antibody, human IgG1, kappa)
heavy: not shown
light: B1 light
notes: also called Ho Ab L235_20W
B11: GpH7-B3 variant G237_19Q/GpL16-k0 (antibody, human IgG1, kappa)
heavy: not shown
light: B1 light
notes: also called Ho Ab G237_19Q
B12: GpH7-B3 variant K326_15Y/GpL16-k0 (antibody, human IgG1, kappa)
heavy: not shown
light: B1 light
notes: also called Ho Ab K326_15Y
B13: GpH7-B3 variant L234_10E/GpL16-k0 (antibody, human IgG1, kappa)
heavy: not shown
light: B1 light
notes: also called Ho Ab L234_10E
B14: GpH7-B3 variant K326_08L/GpL16-k0 (antibody, human IgG1, kappa)
heavy: not shown
light: B1 light
notes: also called Ho Ab K326_08L
B15: GpH7-B3 variant I336_18N/GpL16-k0 (antibody, human IgG1, kappa)
heavy: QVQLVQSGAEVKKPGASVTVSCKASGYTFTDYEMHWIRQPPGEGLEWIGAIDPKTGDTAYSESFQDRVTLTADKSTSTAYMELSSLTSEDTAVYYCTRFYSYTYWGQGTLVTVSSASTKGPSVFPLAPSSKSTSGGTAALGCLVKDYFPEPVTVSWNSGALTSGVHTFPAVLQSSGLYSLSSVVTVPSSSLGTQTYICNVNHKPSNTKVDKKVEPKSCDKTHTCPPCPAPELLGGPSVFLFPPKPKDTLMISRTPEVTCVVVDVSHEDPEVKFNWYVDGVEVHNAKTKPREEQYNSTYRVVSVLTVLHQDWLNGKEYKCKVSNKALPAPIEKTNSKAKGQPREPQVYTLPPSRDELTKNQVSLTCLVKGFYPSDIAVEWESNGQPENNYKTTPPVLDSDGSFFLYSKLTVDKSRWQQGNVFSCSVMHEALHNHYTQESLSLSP
light: B1 light
notes: also called Ho Ab I336_18N
B16: GpH7-B3 variant G237_18N/GpL16-k0 (antibody, human IgG1, kappa)
heavy: not shown
light: B1 light
notes: also called Ho Ab G237_18N
B17: GpH7-B3 variant K334_13S/GpL16-k0 (antibody, human IgG1, kappa)
heavy: not shown
light: B1 light
notes: also called Ho Ab K334_13S
B18: GpH7-B3 variant G237_04F/GpL16-k0 (antibody, human IgG1, kappa)
heavy: not shown
light: B1 light
notes: also called Ho Ab G237_04F
B19: GpH7-B3 variant L234_20W/GpL16-k0 (antibody, human IgG1, kappa)
heavy: not shown
light: B1 light
notes: also called Ho Ab L234_20W
B20: GpH7-B3 variant E333_07I/GpL16-k0 (antibody, human IgG1, kappa)
heavy: not shown
light: B1 light
notes: also called Ho Ab E333_07I
B21: GpH7-B3 variant K326_12R/GpL16-k0 (antibody, human IgG1, kappa)
heavy: not shown
light: B1 light
notes: also called Ho Ab K326_12R
B22: GpH7-B3 variant K326_03V/GpL16-k0 (antibody, human IgG1, kappa)
heavy: not shown
light: B1 light
notes: also called Ho Ab K326_03V
B23: GpH7-B3 variant G237_02A/GpL16-k0 (antibody, human IgG1, kappa)
heavy: not shown
light: B1 light
notes: also called Ho Ab G237_02A
B24: GpH7-B3 variant L235_04F/GpL16-k0 (antibody, human IgG1, kappa)
heavy: not shown
light: B1 light
notes: also called Ho Ab L235_04F
B25: GpH7-B3 variant G237_20W/GpL16-k0 (antibody, human IgG1, kappa)
heavy: not shown
light: B1 light
notes: also called Ho Ab G237_20W
B26: GpH7-B3 variant E269_09D/GpL16-k0 (antibody, human IgG1, kappa)
heavy: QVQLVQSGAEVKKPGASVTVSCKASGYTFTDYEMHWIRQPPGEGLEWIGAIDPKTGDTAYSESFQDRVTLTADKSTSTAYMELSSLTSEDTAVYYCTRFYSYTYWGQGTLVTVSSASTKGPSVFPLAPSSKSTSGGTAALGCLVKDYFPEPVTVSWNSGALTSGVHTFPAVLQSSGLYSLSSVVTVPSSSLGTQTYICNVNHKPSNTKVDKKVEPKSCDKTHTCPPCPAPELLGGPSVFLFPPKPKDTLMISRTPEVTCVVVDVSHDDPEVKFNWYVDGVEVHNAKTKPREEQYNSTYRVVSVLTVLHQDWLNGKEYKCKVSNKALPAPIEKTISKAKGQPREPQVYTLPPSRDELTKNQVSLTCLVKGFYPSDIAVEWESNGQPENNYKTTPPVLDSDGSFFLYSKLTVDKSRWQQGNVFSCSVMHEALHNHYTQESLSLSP
light: B1 light
notes: also called Ho Ab E269_09D
B27: GpH7-B3 variant I332_14T/GpL16-k0 (antibody, human IgG1, kappa)
heavy: not shown
light: B1 light
notes: also called Ho Ab I332_14T
B28: GpH7-B3 variant I336_08L/GpL16-k0 (antibody, human IgG1, kappa)
heavy: not shown
light: B1 light
notes: also called Ho Ab I336_08L
B29: GpH7-B3 variant H268_20W/GpL16-k0 (antibody, human IgG1, kappa)
heavy: not shown
light: B1 light
notes: also called Ho Ab H268_20W
B30: GpH7-B3 variant L234_09D/GpL16-k0 (antibody, human IgG1, kappa)
heavy: not shown
light: B1 light
notes: also called Ho Ab L234_09D
B31: GpH7-B3 variant K334_19Q/GpL16-k0 (antibody, human IgG1, kappa)
heavy: not shown
light: B1 light
notes: also called Ho Ab K334_19Q
B32: GpH7-B3 variant G237_08L/GpL16-k0 (antibody, human IgG1, kappa)
heavy: not shown
light: B1 light
notes: also called Ho Ab G237_08L
B33: GpH7-B3 variant K334_08L/GpL16-k0 (antibody, human IgG1, kappa)
heavy: not shown
light: B1 light
notes: also called Ho Ab K334_08L
B34: GpH7-B3 variant E333_05P/GpL16-k0 (antibody, human IgG1, kappa)
heavy: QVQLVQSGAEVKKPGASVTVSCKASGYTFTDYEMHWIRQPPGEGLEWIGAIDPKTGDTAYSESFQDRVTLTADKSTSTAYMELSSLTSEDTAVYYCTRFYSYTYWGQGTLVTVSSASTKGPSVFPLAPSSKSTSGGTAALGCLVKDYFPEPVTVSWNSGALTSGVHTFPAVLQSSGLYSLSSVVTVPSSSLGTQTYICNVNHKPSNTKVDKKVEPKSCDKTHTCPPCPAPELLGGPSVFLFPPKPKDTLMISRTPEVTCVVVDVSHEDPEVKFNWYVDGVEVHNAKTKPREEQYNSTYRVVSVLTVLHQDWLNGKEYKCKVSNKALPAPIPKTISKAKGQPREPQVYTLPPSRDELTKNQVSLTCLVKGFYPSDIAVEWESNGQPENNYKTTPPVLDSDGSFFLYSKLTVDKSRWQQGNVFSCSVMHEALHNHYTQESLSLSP
light: B1 light
notes: also called Ho Ab E333_05P
B35: GpH7-B3 variant K326_18N/GpL16-k0 (antibody, human IgG1, kappa)
heavy: not shown
light: B1 light
notes: also called Ho Ab K326_18N
B36: GpH7-B3 variant K326_20W/GpL16-k0 (antibody, human IgG1, kappa)
heavy: not shown
light: B1 light
notes: also called Ho Ab K326_20W
B37: GpH7-B3 variant E333_15Y/GpL16-k0 (antibody, human IgG1, kappa)
heavy: not shown
light: B1 light
notes: also called Ho Ab E333_15Y
B38: GpH7-B3 variant K334_20W/GpL16-k0 (antibody, human IgG1, kappa)
heavy: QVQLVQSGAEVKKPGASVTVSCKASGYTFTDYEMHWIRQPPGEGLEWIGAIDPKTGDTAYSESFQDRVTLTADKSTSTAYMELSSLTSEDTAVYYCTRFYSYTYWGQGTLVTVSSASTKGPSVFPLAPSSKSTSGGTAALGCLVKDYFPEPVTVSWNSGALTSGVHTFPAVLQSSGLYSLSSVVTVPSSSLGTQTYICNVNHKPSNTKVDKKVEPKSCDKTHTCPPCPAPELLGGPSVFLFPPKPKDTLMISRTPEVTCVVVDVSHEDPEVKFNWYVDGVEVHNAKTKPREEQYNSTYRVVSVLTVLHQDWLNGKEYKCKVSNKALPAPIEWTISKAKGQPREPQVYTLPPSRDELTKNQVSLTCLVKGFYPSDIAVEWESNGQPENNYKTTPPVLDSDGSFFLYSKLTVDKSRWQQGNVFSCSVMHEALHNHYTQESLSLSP
light: B1 light
notes: also called Ho Ab K334_20W
B39: GpH7-B3 variant K326_07I/GpL16-k0 (antibody, human IgG1, kappa)
heavy: not shown
light: B1 light
notes: also called Ho Ab K326_07I
B40: GpH7-B3 variant E333_08L/GpL16-k0 (antibody, human IgG1, kappa)
heavy: not shown
light: B1 light
notes: also called Ho Ab E333_08L
B41: GpH7-B3 variant G236_14T/GpL16-k0 (antibody, human IgG1, kappa)
heavy: not shown
light: B1 light
notes: also called Ho Ab G236_14T
B42: GpH7-B3 variant H268_12R/GpL16-k0 (antibody, human IgG1, kappa)
heavy: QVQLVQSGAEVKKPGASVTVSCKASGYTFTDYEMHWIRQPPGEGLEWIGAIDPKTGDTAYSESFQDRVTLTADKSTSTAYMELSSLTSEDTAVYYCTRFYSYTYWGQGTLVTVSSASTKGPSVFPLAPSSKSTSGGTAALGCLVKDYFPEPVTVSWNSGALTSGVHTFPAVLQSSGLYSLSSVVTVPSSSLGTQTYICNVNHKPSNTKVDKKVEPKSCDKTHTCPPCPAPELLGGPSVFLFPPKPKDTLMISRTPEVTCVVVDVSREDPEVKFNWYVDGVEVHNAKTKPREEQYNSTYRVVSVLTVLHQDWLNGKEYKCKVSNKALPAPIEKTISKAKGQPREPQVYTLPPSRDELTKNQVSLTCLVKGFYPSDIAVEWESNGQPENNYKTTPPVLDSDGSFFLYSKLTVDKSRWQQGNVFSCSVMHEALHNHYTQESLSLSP
light: B1 light
notes: also called Ho Ab H268_12R
B43: GpH7-B3 variant G237_13S/GpL16-k0 (antibody, human IgG1, kappa)
heavy: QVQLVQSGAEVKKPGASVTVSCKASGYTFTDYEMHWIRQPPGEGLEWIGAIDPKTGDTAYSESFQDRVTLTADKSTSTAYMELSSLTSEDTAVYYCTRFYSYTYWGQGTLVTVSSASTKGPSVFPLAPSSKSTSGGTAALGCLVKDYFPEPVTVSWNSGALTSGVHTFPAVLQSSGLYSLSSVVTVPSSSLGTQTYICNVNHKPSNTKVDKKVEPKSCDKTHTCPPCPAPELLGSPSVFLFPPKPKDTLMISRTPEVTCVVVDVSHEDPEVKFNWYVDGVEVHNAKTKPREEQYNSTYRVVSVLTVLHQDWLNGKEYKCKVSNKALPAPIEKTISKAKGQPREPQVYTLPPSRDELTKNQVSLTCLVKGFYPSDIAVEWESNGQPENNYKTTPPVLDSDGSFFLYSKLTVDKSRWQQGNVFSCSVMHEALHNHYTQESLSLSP
light: B1 light
notes: also called Ho Ab G237_13S
B44: GpH7-B3 variant I332_06M/GpL16-k0 (antibody, human IgG1, kappa)
heavy: not shown
light: B1 light
notes: also called Ho Ab I332_06M
B45: GpH7-B3 variant K334_12R/GpL16-k0 (antibody, human IgG1, kappa)
heavy: not shown
light: B1 light
notes: also called Ho Ab K334_12R
B46: GpH7-B3 variant K334_02A/GpL16-k0 (antibody, human IgG1, kappa)
heavy: not shown
light: B1 light
notes: also called Ho Ab K334_02A
B47: GpH7-B3 variant K334_04F/GpL16-k0 (antibody, human IgG1, kappa)
heavy: not shown
light: B1 light
notes: also called Ho Ab K334_04F
B48: GpH7-B3 variant H268_15Y/GpL16-k0 (antibody, human IgG1, kappa)
heavy: not shown
light: B1 light
notes: also called Ho Ab H268_15Y
B49: GpH7-B3 variant H268_01G/GpL16-k0 (antibody, human IgG1, kappa)
heavy: not shown
light: B1 light
notes: also called Ho Ab H268_01G
B50: GpH7-B3 variant I336_06M/GpL16-k0 (antibody, human IgG1, kappa)
heavy: not shown
light: B1 light
notes: also called Ho Ab I336_06M
B51: GpH7-B3 variant K334_05P/GpL16-k0 (antibody, human IgG1, kappa)
heavy: not shown
light: B1 light
notes: also called Ho Ab K334_05P
B52: GpH7-B3 variant E333_09D/GpL16-k0 (antibody, human IgG1, kappa)
heavy: not shown
light: B1 light
notes: also called Ho Ab E333_09D
B53: GpH7-B3 variant G237_10E/GpL16-k0 (antibody, human IgG1, kappa)
heavy: not shown
light: B1 light
notes: also called Ho Ab G237_10E
B54: GpH7-B3 variant H268_11K/GpL16-k0 (antibody, human IgG1, kappa)
heavy: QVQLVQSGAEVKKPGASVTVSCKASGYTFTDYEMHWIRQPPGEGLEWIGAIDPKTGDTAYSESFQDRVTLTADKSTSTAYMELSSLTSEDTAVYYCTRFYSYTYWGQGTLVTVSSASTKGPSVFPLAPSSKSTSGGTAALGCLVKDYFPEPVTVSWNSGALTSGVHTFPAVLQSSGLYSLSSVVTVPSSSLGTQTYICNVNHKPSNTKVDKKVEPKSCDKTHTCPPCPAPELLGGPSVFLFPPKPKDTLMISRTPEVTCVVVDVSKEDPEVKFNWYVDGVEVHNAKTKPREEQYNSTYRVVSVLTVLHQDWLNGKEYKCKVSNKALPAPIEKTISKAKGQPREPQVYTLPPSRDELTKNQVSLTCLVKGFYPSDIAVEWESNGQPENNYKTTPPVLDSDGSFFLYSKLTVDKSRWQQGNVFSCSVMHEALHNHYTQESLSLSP
light: B1 light
notes: also called Ho Ab H268_11K
B55: GpH7-B3 variant G237_09D/GpL16-k0 (antibody, human IgG1, kappa)
heavy: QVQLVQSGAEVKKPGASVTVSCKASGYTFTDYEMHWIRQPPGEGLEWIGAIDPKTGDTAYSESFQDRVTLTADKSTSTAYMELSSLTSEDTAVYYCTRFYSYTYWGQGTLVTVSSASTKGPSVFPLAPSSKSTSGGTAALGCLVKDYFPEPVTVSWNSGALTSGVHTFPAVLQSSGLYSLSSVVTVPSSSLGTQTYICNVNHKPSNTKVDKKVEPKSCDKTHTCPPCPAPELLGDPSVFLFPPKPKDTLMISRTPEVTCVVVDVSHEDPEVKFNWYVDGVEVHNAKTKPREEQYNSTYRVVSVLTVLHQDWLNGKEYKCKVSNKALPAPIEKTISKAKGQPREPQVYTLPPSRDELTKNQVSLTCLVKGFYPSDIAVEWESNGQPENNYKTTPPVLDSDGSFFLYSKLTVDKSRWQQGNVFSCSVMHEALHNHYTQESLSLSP
light: B1 light
notes: also called Ho Ab G237_09D
B56: GpH7-B3 variant L235_09D/GpL16-k0 (antibody, human IgG1, kappa)
heavy: not shown
light: B1 light
notes: also called Ho Ab L235_09D

biological target: T1, FcγRIIa R; experiment: SPR Biacore; vs GpH7-B3/GpL16-k0 =100
Experimental: Analysis of interaction between objective antibody and the FcγR was carried out using Biacore T100 (GE Healthcare). HBS-EP+ (GE Healthcare) was used as the running buffer, and the measurement temperature was set to 25° C. Chips produced by immobilizing the antigen peptide by the amine coupling method to a Series S Sencor Chip CM5 (GE Healthcare), or alternatively, chips produced by allowing preliminarily biotinylated antigen peptides to interact with and immobilize onto a Series S Sensor Chip SA (certified) (GE Healthcare) were used. Antibodies of interest were captured onto an antigen peptide-immobilized chip, and allowed to interact to each FcγR diluted with running buffer. To regenerate and repeatedly use the chip, the antibodies captured on the chip were washed off by reacting 10 mM glycine-HCl, pH 1.5.
The FcγR-binding activity of each antibody was assessed primarily using as an indicator the FcγR-binding activity and dissociation constant for FcγR.

Row | Ho/Con_2aR | Binder
1 | 99.1 % of control | B1
2 | 133 % of control | B2
3 | 95.9 % of control | B3
4 | 111 % of control | B4
5 | 92.4 % of control | B5
6 | 105 % of control | B6
7 | 106 % of control | B7
8 | 55.3 % of control | B8
9 | 43.3 % of control | B9
10 | 114 % of control | B10
11 | 14.3 % of control | B11
12 | 134 % of control | B12
13 | 39.9 % of control | B13
14 | 131 % of control | B14
15 | 94.5 % of control | B15
16 | 73.6 % of control | B16
17 | 106 % of control | B17
18 | 113 % of control | B18
19 | 53.8 % of control | B19

Row | Ho/Con_2aR | Binder
20 | 98.3 % of control | B20
21 | 95.7 % of control | B21
22 | 139 % of control | B22
23 | 84 % of control | B23
24 | 98.9 % of control | B24
25 | 107 % of control | B25
26 | 103 % of control | B26
27 | 99.6 % of control | B27
28 | 105 % of control | B28
29 | 110 % of control | B29
30 | 42.8 % of control | B30
31 | 108 % of control | B31
32 | 56.6 % of control | B32
33 | 105 % of control | B33
34 | 99.9 % of control | B34
35 | 113 % of control | B35
36 | 120 % of control | B36
37 | 96.2 % of control | B37
38 | 96.4 % of control | B38

Row | Ho/Con_2aR | Binder
39 | 133 % of control | B39
40 | 97.1 % of control | B40
41 | 80 % of control | B41
42 | 98.5 % of control | B42
43 | 44.4 % of control | B43
44 | 105 % of control | B44
45 | 110 % of control | B45
46 | 100 % of control | B46
47 | 110 % of control | B47
48 | 106 % of control | B48
49 | 122 % of control | B49
50 | 96.4 % of control | B50
51 | 102 % of control | B51
52 | 96.5 % of control | B52
53 | 22.5 % of control | B53
54 | 93.4 % of control | B54
55 | 73.1 % of control | B55
56 | 73 % of control | B56
